We go through one molecule from patent US20220267442A1.

The experiment addresses recombinant human TGF-β1 (human) (UniProt P01137). In words: cell-based or functional assay.

Chain of recombinant human TGF-β1 (human) (P01137 279-390 limits assumed): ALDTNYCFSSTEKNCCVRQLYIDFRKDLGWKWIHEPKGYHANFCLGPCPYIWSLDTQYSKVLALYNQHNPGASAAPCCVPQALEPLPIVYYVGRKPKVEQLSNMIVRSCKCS

B1: anti-TGF-β (αTGF-β, 1D11 clone) (antibody, from another filing, V domains shown)
VH: QVQLQQSGPELVRPGASVKLSCKASGYIFITYWMNWVKQRPGQGLEWIGQIFPASGSTNYNEMFEGKATLTVDTSSSTAYMQLSSLTSEDSAVYYCARGDGNYALDAMDYWGQGTSVTVSS
VL: DIVLTQSPASLAVSLGQRATISCRASESVDSYGNSFMHWYQQKSGQPPKLLIYLASNLESGVPARFSGSGSRTDFTLTIDPVEADDAATYYCQQNNEDPLTFGAGTKLEIK
As to B1, the 80% maximal inhibition (IC80), TGF-β signaling reporter assay (TGF-β/SMAD luciferase in HEK293 cells, 10 ng/mL recombinant human TGF-β1) is 25 nM.
